# Target: IL-9R/h16445 cytoplasmic-domain receptor chimera (human)
# Assay: cell-based or functional assay
# Sequence of IL-9R/h16445 cytoplasmic-domain receptor chimera (human) (Q9HBE5 254-538, change not shown): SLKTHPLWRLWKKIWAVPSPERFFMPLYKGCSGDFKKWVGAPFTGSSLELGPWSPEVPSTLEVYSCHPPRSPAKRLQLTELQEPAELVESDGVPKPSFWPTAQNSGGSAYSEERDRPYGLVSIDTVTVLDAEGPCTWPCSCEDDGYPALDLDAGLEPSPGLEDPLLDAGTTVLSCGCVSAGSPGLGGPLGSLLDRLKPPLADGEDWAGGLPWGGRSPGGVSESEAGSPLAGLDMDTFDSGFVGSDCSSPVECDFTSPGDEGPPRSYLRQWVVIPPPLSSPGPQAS
substance,measurement,value
IL-9 (ligand),"CAT expression (HRRE-CAT reporter, HepG2 cells)",> 30 fold

# Source: patent US20020090680A1
